# According to the supplement of paper PMC9112550, “Optimization of the antimicrobial peptide Bac7 by deep mutational scanning” (BMC Biology, 2022):
# Test system: Escherichia coli TOP10
# Assay: shrunken log2 fold change of peptide-encoding DNA abundance (4.5 h post-induction vs induction); higher = less antimicrobial activity (less host growth inhibition)
# Details: time post-induction: 4.5 h; library: site-saturation at positions 5, 18, 19, 20
# 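Further: peptides expressed intracellularly from a pBAD plasmid library in pooled LB shake-flask culture, induced with 0.3% L-arabinose, DNA abundance read by NGS, three biological replicates, DESeq2 with apeglm shrinkage.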
row,Sequence,shrunken log2 fold change
1,RRIRVRPPRLPRPRPRPRPEPRP,0.609
2,RRIRMRPPRLPRPRPRPEGEPRP,0.123
3,RRIRRRPPRLPRPRPRPSNGPRP,-0.296
4,RRIRNRPPRLPRPRPRPSLQPRP,-0.0436
5,RRIRRRPPRLPRPRPRPLFAPRP,0.755
6,RRIRARPPRLPRPRPRPQLAPRP,0.766
7,RRIRMRPPRLPRPRPRPHAWPRP,0.365
8,RRIRKRPPRLPRPRPRPIRIPRP,-0.0265
9,RRIRRRPPRLPRPRPRPATVPRP,-0.037
10,RRIRRRPPRLPRPRPRPCQRPRP,0.0494
11,RRIRARPPRLPRPRPRPSLNPRP,-0.0562
12,RRIRSRPPRLPRPRPRPVLSPRP,0.0825
13,RRIRKRPPRLPRPRPRPLVNPRP,-0.0445
14,RRIRNRPPRLPRPRPRPLHIPRP,-0.363
15,RRIRWRPPRLPRPRPRPDIRPRP,-0.0808
16,RRIRNRPPRLPRPRPRPSIAPRP,-0.0838
17,RRIRVRPPRLPRPRPRPVYDPRP,-0.182
18,RRIRCRPPRLPRPRPRPLWQPRP,-0.147
19,RRIRERPPRLPRPRPRPNPLPRP,-0.0696
20,RRIRFRPPRLPRPRPRPYIPPRP,-1.8
21,RRIRVRPPRLPRPRPRPNRDPRP,-0.0911
22,RRIRYRPPRLPRPRPRPLQGPRP,-0.0139
23,RRIRDRPPRLPRPRPRPDLEPRP,0.0526
24,RRIRKRPPRLPRPRPRPPCAPRP,0.804
25,RRIRVRPPRLPRPRPRPNYSPRP,-0.438

row,Sequence,shrunken log2 fold change
1,RRIRERPPRLPRPRPRPFEKPRP,0.00177
2,RRIRVRPPRLPRPRPRPLARPRP,0.0756
3,RRIRVRPPRLPRPRPRPPYSPRP,-0.384
4,RRIRVRPPRLPRPRPRPPITPRP,-0.117
5,RRIRPRPPRLPRPRPRPICFPRP,-0.189
6,RRIRMRPPRLPRPRPRPDFAPRP,0.0706
7,RRIRKRPPRLPRPRPRPSLVPRP,0.174
8,RRIRSRPPRLPRPRPRPMYSPRP,-1.24
9,RRIRRRPPRLPRPRPRPEAIPRP,0.445
10,RRIRFRPPRLPRPRPRPKYIPRP,-0.678
11,RRIRLRPPRLPRPRPRPQGMPRP,-0.0379
12,RRIRRRPPRLPRPRPRPIKMPRP,-0.0923
13,RRIRIRPPRLPRPRPRPAFQPRP,0.107
14,RRIRGRPPRLPRPRPRPWEFPRP,-0.0208
15,RRIRLRPPRLPRPRPRPMHGPRP,0.0554
16,RRIRGRPPRLPRPRPRPKVHPRP,0.598
17,RRIRNRPPRLPRPRPRPNSLPRP,-0.335
18,RRIRWRPPRLPRPRPRPVTQPRP,-0.0775
19,RRIRWRPPRLPRPRPRPNYWPRP,1.21
20,RRIRRRPPRLPRPRPRPTQRPRP,0.625
21,RRIRERPPRLPRPRPRPWEDPRP,-0.0727
22,RRIRRRPPRLPRPRPRPSIHPRP,-0.337
23,RRIRARPPRLPRPRPRPITMPRP,-0.231
24,RRIRPRPPRLPRPRPRPSICPRP,-0.718
25,RRIRVRPPRLPRPRPRPRFCPRP,-0.0488

row,Sequence,shrunken log2 fold change
1,RRIRPRPPRLPRPRPRPASWPRP,0.362
2,RRIRRRPPRLPRPRPRPMFSPRP,-0.0418
3,RRIRQRPPRLPRPRPRPDAYPRP,-0.228
4,RRIRWRPPRLPRPRPRPVLSPRP,0.415
5,RRIRVRPPRLPRPRPRPCRGPRP,1.11
6,RRIRTRPPRLPRPRPRPCLGPRP,-0.534
7,RRIRQRPPRLPRPRPRPNGDPRP,0.0171
8,RRIRQRPPRLPRPRPRPRFVPRP,0.165
9,RRIRARPPRLPRPRPRPAINPRP,-0.00878
10,RRIRARPPRLPRPRPRPFAPPRP,0.61
11,RRIRTRPPRLPRPRPRPSQQPRP,0.117
12,RRIRNRPPRLPRPRPRPIECPRP,0.0138
13,RRIRDRPPRLPRPRPRPSNWPRP,-0.136
14,RRIRNRPPRLPRPRPRPIMNPRP,-0.619
15,RRIRFRPPRLPRPRPRPIHEPRP,-0.169
16,RRIRTRPPRLPRPRPRPNCKPRP,-0.218
17,RRIRTRPPRLPRPRPRPFDNPRP,-1.32
18,RRIRVRPPRLPRPRPRPKGEPRP,-0.0112
19,RRIRNRPPRLPRPRPRPSGFPRP,0.0185
20,RRIRKRPPRLPRPRPRPVVCPRP,0.126
21,RRIRSRPPRLPRPRPRPMYNPRP,-0.557
22,RRIRGRPPRLPRPRPRPEPNPRP,1.42
23,RRIRRRPPRLPRPRPRPSSQPRP,-0.25
24,RRIRIRPPRLPRPRPRPRNTPRP,-0.208
25,RRIRRRPPRLPRPRPRPSKYPRP,-0.483

row,Sequence,shrunken log2 fold change
1,RRIRMRPPRLPRPRPRPACVPRP,0.428
2,RRIRCRPPRLPRPRPRPQKYPRP,-0.698
3,RRIRVRPPRLPRPRPRPYTSPRP,-0.0679
4,RRIRRRPPRLPRPRPRPMWCPRP,0.135
5,RRIRWRPPRLPRPRPRPDFEPRP,0.385
6,RRIRHRPPRLPRPRPRPRYPPRP,0.0331
7,RRIRMRPPRLPRPRPRPANCPRP,-0.242
8,RRIRSRPPRLPRPRPRPVDYPRP,-0.268
9,RRIRFRPPRLPRPRPRPDILPRP,-0.119
10,RRIRWRPPRLPRPRPRPSDRPRP,-0.0684
11,RRIRYRPPRLPRPRPRPFCHPRP,-0.239
12,RRIRARPPRLPRPRPRPSMGPRP,-0.0314
13,RRIRERPPRLPRPRPRPPLGPRP,0.0751
14,RRIRWRPPRLPRPRPRPDNVPRP,-0.26
15,RRIRNRPPRLPRPRPRPYDTPRP,-0.22
16,RRIRGRPPRLPRPRPRPCLDPRP,-0.0991
17,RRIRNRPPRLPRPRPRPHLVPRP,-0.0893
18,RRIRIRPPRLPRPRPRPSNEPRP,-0.945
19,RRIRQRPPRLPRPRPRPISVPRP,0.136
20,RRIRGRPPRLPRPRPRPLIMPRP,0.206
21,RRIRVRPPRLPRPRPRPYIVPRP,-0.00649
22,RRIRHRPPRLPRPRPRPITWPRP,-0.149
23,RRIRVRPPRLPRPRPRPADMPRP,-0.173
24,RRIRQRPPRLPRPRPRPLFKPRP,-0.387
25,RRIRPRPPRLPRPRPRPLGQPRP,0.0471

row,Sequence,shrunken log2 fold change
1,RRIRLRPPRLPRPRPRPGIGPRP,0.417
2,RRIRMRPPRLPRPRPRPPAVPRP,1.44
3,RRIRYRPPRLPRPRPRPLCFPRP,-0.727
4,RRIRERPPRLPRPRPRPGQGPRP,-0.132
5,RRIRWRPPRLPRPRPRPSSQPRP,-0.317
6,RRIRQRPPRLPRPRPRPIDAPRP,0.000655
7,RRIRRRPPRLPRPRPRPGFDPRP,0.289
8,RRIRIRPPRLPRPRPRPQFVPRP,-0.229
9,RRIRSRPPRLPRPRPRPPGQPRP,0.4
10,RRIRQRPPRLPRPRPRPWRFPRP,-0.113
11,RRIRMRPPRLPRPRPRPLWCPRP,0.147
12,RRIRERPPRLPRPRPRPTCQPRP,0.00216
13,RRIRLRPPRLPRPRPRPGNDPRP,-0.0526
14,RRIRRRPPRLPRPRPRPVQDPRP,0.252
15,RRIRLRPPRLPRPRPRPFRQPRP,0.0662
16,RRIRFRPPRLPRPRPRPNANPRP,-0.0822
17,RRIRIRPPRLPRPRPRPGDPPRP,-0.0811
18,RRIRIRPPRLPRPRPRPFFRPRP,-0.636
19,RRIRMRPPRLPRPRPRPRFGPRP,0.853
20,RRIRPRPPRLPRPRPRPMNHPRP,-0.11
21,RRIRCRPPRLPRPRPRPAVPPRP,0.073
22,RRIRARPPRLPRPRPRPNPHPRP,0.0863
23,RRIRWRPPRLPRPRPRPFMFPRP,-0.0915
24,RRIRIRPPRLPRPRPRPHTYPRP,-0.715
25,RRIRTRPPRLPRPRPRPYTGPRP,-0.0567

row,Sequence,shrunken log2 fold change
1,RRIRQRPPRLPRPRPRPCQIPRP,-0.298
2,RRIRGRPPRLPRPRPRPCVWPRP,0.921
3,RRIRPRPPRLPRPRPRPNPMPRP,-0.211
4,RRIRSRPPRLPRPRPRPIDTPRP,-0.117
5,RRIRCRPPRLPRPRPRPCTSPRP,-0.647
6,RRIRGRPPRLPRPRPRPEYKPRP,0.375
7,RRIRYRPPRLPRPRPRPSMAPRP,-0.572
8,RRIRTRPPRLPRPRPRPHVDPRP,0.0574
9,RRIRLRPPRLPRPRPRPMGPPRP,0.015
10,RRIRTRPPRLPRPRPRPDFHPRP,-0.336
11,RRIRWRPPRLPRPRPRPKVMPRP,-0.207
12,RRIRTRPPRLPRPRPRPHPHPRP,0.0583
13,RRIRGRPPRLPRPRPRPHGDPRP,1.11
14,RRIRQRPPRLPRPRPRPHVTPRP,0.0406
15,RRIRLRPPRLPRPRPRPCQNPRP,-0.0404
16,RRIRVRPPRLPRPRPRPRWPPRP,0.534
17,RRIRNRPPRLPRPRPRPAKVPRP,-0.0027
18,RRIRTRPPRLPRPRPRPSDTPRP,-0.212
19,RRIRKRPPRLPRPRPRPMPPPRP,0.729
20,RRIRARPPRLPRPRPRPRIVPRP,0.547
21,RRIRVRPPRLPRPRPRPSISPRP,-0.357
22,RRIRHRPPRLPRPRPRPGAAPRP,0.324
23,RRIRGRPPRLPRPRPRPRWTPRP,0.43
24,RRIRERPPRLPRPRPRPKVMPRP,0.0306
25,RRIRVRPPRLPRPRPRPFKQPRP,-0.0195
